The target of one experiment is T1, GST-Arc 195-364 (rat) (rat, UniProt Q63053 195-364).
T1 construct: rat Arc residues 195-364, Uniprot Q63053; GST is followed by a thrombin and a factor Xa site; the protein was eluted with glutathione and no cleavage is described; also called pGEX4T1-Arc 195-364; source: E. coli BL21-DE3-pLysS, purified (Glutathione Sepharose, SEC)
T1 sequence (looked up): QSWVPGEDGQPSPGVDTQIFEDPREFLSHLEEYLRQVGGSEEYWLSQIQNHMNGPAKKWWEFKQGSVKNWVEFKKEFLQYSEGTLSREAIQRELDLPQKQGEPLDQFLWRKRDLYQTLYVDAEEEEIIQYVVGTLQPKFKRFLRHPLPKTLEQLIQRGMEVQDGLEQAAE
Briefly: fluorescence polarisation; saturation binding: increasing protein, fixed fluorescently labeled peptide; 50 mM Tris (pH 8.0), 300 mM NaCl, 10 mM EDTA, 1 mM TCEP; 20 min on ice. The settings on record: both partners purified.

The target of experiment [1] is T2, full length PSD-95 (FL-PSD-95, 1-724) (human, UniProt P78352 1-724).
T2 construct: construct 32M3C-PSD-95 FL 1-724 from Zeng et al. (2016a); A PreScission 3C site follows the tags; For the arrays 0.1 uM of 1 uM was labelled with Alexa 633 (maleimide); also called PSD protein 95; 32M3C-PSD-95 FL; source: E. coli BL21-DE3-pLysS, purified (HisTrap, SEC)
The description is as above. The settings on record: both partners purified.

Ends that are not written are not given here. TAMRA = 5 (and 6)-carboxytetramethylrhodamine

T2 sequence (P78352 whole entry): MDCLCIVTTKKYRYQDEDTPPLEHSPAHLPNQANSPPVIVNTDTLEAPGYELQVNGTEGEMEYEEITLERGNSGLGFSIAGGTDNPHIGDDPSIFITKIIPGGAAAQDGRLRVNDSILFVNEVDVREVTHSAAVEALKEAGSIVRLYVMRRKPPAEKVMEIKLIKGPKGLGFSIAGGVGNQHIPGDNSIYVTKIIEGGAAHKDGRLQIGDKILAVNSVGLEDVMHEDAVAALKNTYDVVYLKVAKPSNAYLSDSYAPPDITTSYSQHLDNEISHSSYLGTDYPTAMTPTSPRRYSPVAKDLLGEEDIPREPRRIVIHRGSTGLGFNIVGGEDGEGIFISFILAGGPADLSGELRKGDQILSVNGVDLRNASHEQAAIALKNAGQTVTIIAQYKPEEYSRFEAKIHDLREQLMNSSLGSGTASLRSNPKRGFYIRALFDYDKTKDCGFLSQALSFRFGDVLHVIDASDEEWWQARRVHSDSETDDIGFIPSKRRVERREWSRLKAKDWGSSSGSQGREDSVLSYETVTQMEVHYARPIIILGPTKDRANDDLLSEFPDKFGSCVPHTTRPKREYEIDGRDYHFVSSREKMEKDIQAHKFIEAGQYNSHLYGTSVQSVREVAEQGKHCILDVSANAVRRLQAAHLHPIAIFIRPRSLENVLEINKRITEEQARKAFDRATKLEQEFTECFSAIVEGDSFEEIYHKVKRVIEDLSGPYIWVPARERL

B1: TAMRA-G-A222ITRIPSYRYRYQRR236 (fluorescently labeled Stg A222-R236 peptide) (peptide)
peptide: {TAMRA}-GAITRIPSYRYRYQRR
notes: added glycine between TAMRA and A222; also called TMR labeled Stg_(A222-R236); source: synthetic peptide (in-house)
For orientation: Kd means the constant that tells how readily two partners part at equilibrium. For B1, the Kd with GST-Arc 195-364 (rat) amounted to 8.37 ± 1.25 µM; in experiment [1] it was 14.9 ± 3 µM.
